± gives the uncertainty stated by the source.
Assay: protein stability index of a GFP-peptide fusion (yeast GPS) (PSI 1-4); higher = more stable; sorted into four equal gates, so the index is relative within each strain
Summary of the method: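 Yeast carrying a pooled library were grown to mid-log phase in leucine-free medium. Each library plasmid expresses Cherry and has a tiled 17-residue yeast protein peptide fused downstream of GFP. Cells were sorted into four equal gates by GFP/Cherry ratio, and plasmids from each gate were PCR-amplified, Illumina-sequenced and assigned to strains by barcode. Summing, across gates, the read frequency times the gate number gave each peptide's protein stability index.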

Sequence	protein stability index (doa10∆)	protein stability index (pdr5∆)	protein stability index (san1∆)	protein stability index (ubr1∆)
GSFKYITARSAFVEFGA [SWP82]	2.62 ± 0.11	3.11 ± 0.074	2.96 ± 0.069	2.56 ± 0.056
QQSTDADEDDEDAKYVI [RPT1]		3.56 ± 0.27		3.8 ± 0.14
FGTGKRLAKKVARRNAD [RPS24A]	3.46 ± 0.062	3.31 ± 0.055	3.1 ± 0.04	3.31 ± 0.039
LFAGYTDNVIRVWQVMT [ASC1]	1.61 ± 0.064	2.07 ± 0.057	1.86 ± 0.099	2.06 ± 0.066
QPQQSTIGGGLFGNKPT [YGR119C/NUP57]	2.75 ± 0.087	2.73 ± 0.15	3.55 ± 0.15	1.38 ± 0.19
NVSDEQLSNWQKIRNSE [ITC1]	3.15 ± 0.071	3.2 ± 0.095	2.94 ± 0.1	2.98 ± 0.087
EVTAGEAQDEASLQQQQ [SNF6]	3.31 ± 0.17		3.29 ± 0.14	3.6 ± 0.27
QQVEGKLSQMILDKIFY [RPN6]	2.81 ± 0.074	2.84 ± 0.081	3.01 ± 0.096	2.94 ± 0.062
KVGQFDQVLNLCLTEFE [FAS1]	2.75 ± 0.076	2.97 ± 0.062	2.73 ± 0.06	3.11 ± 0.038
AAGANVDNVWADVYAKA [RPP1B]	3.2 ± 0.096	3.16 ± 0.14	2.77 ± 0.14	2.96 ± 0.12
IDHSDESNRQSVIVDSK [ESC2]	3.18 ± 0.13	3.27 ± 0.077	3.08 ± 0.093	3.51 ± 0.15
GNRNSSSVFLPSRKDCM [BRR2]	3.18 ± 0.086	3.16 ± 0.071	3.2 ± 0.057	3.22 ± 0.074
DNDSLTDLESLSSGESN [SIR4]	3.15 ± 0.096	3.31 ± 0.12	3.07 ± 0.074	3.09 ± 0.073
YVTKPMVNESDGVTHAL [RPB2]	3.2 ± 0.088	3.28 ± 0.087	2.94 ± 0.081	3.36 ± 0.082
ENIQEGTSLTIQHIAAA [CDC53]	2.52 ± 0.091	3.11 ± 0.086	2.42 ± 0.099	2.91 ± 0.077
GEEDAVDLLLEIESIDK [RPN1]	3.25 ± 0.11	3.08 ± 0.14	3.25 ± 0.08	3.33 ± 0.057
KQTGRDQMVVGWYHSHP [RPN11]	2.4 ± 0.12	1.97 ± 0.096	2.4 ± 0.15	1.53 ± 0.096
TPIAGRFTPGSFTNYIT [RPS0A]	3.01 ± 0.11	2.99 ± 0.072	2.97 ± 0.082	3.16 ± 0.1
FGAKSDEKKDSDSSKPA [YJL041W/NSP1]	3.04 ± 0.074	3.21 ± 0.099	3.24 ± 0.07	3.04 ± 0.086
NSLIEEINERSETQTKD [YCG1]	3.07 ± 0.12	3.33 ± 0.12	3.17 ± 0.087	2.97 ± 0.1
SSQNNSELAPIEEHPTV [IRR1]				3.14 ± 0.17
TLLARAVAHHTDCKFIR [RPT6]	3.09 ± 0.11	3.03 ± 0.076	1.86 ± 0.14	2.23 ± 0.15
VMTYKGEVLGITRFGLS [RPO31]	3.37 ± 0.16		3.09 ± 0.12	3.46 ± 0.29
PYCPIASITGTGSNDRC [YMR129W/POM152]	1.96 ± 0.099	1.82 ± 0.1	1.56 ± 0.18	1.64 ± 0.055
AGILRGYDIFLNVVLDD [SMX2]	3.14 ± 0.055	2.38 ± 0.06	2.51 ± 0.084	2.75 ± 0.051
FKLPKKFPPPTPLLENI [BRR2]	2.44 ± 0.062	2.72 ± 0.067	2.31 ± 0.061	2.71 ± 0.048

Sequence	protein stability index (doa10∆)	protein stability index (pdr5∆)	protein stability index (san1∆)	protein stability index (ubr1∆)
LSEFGIKKMLHLVWMKG [YCS4]	3.17 ± 0.17	3.47 ± 0.11	2.31 ± 0.15	3.29 ± 0.17
AAKIIYLAHEDNKEKDF [PRE10]	2.81 ± 0.19	3.18 ± 0.098	3.25 ± 0.11	3.01 ± 0.23
SDVLRFLQRVRVWEYRQ [RPL15A]	1.34 ± 0.083	1.88 ± 0.066	1.71 ± 0.083	2.01 ± 0.054
NINEVKKASDLVDTPSN [NUT1]	3.14 ± 0.083	2.97 ± 0.085	3.23 ± 0.065	3.27 ± 0.07
ISFAAFILADAGLEITS [RPP1B]	1.98 ± 0.063	1.8 ± 0.055	2.03 ± 0.23	1.9 ± 0.076
PAKIVNFEKPKNSSQLL [RPN5]	3.06 ± 0.075	3.2 ± 0.068	3.21 ± 0.052	3.2 ± 0.06
VSISTSVKPHVVEPEHM [SIR4]	2.54 ± 0.078	2.99 ± 0.089	2.53 ± 0.087	2.65 ± 0.052
LQEIYQTDAIKSDEAKW [RPN5]	2.34 ± 0.09	2.5 ± 0.13	2.13 ± 0.13	2.16 ± 0.17
IYSPEGLRLDGRRWNEL [SKI6]	1.42 ± 0.16	1.77 ± 0.19		
VFDKDGNYIKTENATEN [LIN1]				3.72 ± 0.28
MSNKVKTKAMVPPINCI [SME1]	2.42 ± 0.057	2.35 ± 0.053	2.64 ± 0.05	2.57 ± 0.035
SVVRVLVHTQIRKTPLA [RPL3]	1.19 ± 0.076	1.35 ± 0.096	1.11 ± 0.14	1.54 ± 0.046
NAQSKLSLTLNTHYHAD [SNF2]	2.76 ± 0.096	2.81 ± 0.11	2.73 ± 0.13	3.09 ± 0.085
LHKRQQFSESTHNDIDS [YJL039C/NUP192]	2.9 ± 0.081	3.03 ± 0.091	2.78 ± 0.051	3.03 ± 0.05
FGYDIPLLDIVLKADRS [YML103C/NUP188]	2.14 ± 0.061	2.81 ± 0.073	2.82 ± 0.068	2.66 ± 0.057
SLQYINIRGNTIRQIIL [SMD1]	3.15 ± 0.097	3.26 ± 0.085	2.73 ± 0.1	2.94 ± 0.065
EAIETCKNFEKTQLGST [GAL11]	2.51 ± 0.13	3.1 ± 0.19		3.36 ± 0.24
KIRITLTSTKVKQLENV [RPS20]	1.77 ± 0.076	2.11 ± 0.12	1.94 ± 0.11	2.25 ± 0.068
NNSNTVASSTNFTSPTA [SWI1]	2.82 ± 0.039	2.67 ± 0.039	2.86 ± 0.041	2.71 ± 0.033
SRKETSRTATWLKNKFA [BRR2]	1.37 ± 0.057	1.29 ± 0.041	1.67 ± 0.11	1.49 ± 0.063
QKYNLLHVLPTLNSRAL [SNM1]	1.45 ± 0.084	1.74 ± 0.078	1.27 ± 0.18	1.56 ± 0.11
EGIEIYDRKKLPRKEVD [RPC11]	3.14 ± 0.14	2.98 ± 0.097	1.91 ± 0.14	3.3 ± 0.17
FLLKAYINVSRGTDIDR [SRB5]				3.08 ± 0.22
NNDADKGRSYAYFMVGA [RIP1]	3.24 ± 0.11	3.32 ± 0.1	3.29 ± 0.084	3.07 ± 0.075
VAIGNTYGFLTPNLWAE [RPS2]	2.26 ± 0.073	2.49 ± 0.054	2.36 ± 0.089	2.43 ± 0.04
HSFAVLLHERKLLNDLA [NUT1]	2.68 ± 0.049	2.49 ± 0.057	2.46 ± 0.086	2.71 ± 0.036
